We go through one molecule from paper PMC7110113, “Termination of non‐coding transcription in yeast relies on both an RNA Pol II CTD interaction domain and a CTD‐mimicking region in Sen1” (The EMBO Journal, 2020).

The term Kd denotes the concentration at which binding is half-saturated. Low readings indicate tighter binding, high ones weaker binding.

Holding throughout (assay): fluorescence polarisation; fluorescence anisotropy, equilibrium binding of Nrd1 CID variants to FAM-labelled NIM peptides; 10°C, 50 mM Na2HPO4, 100 mM NaCl, pH 8; 1:1 model with non-specific binding (DynaFit)
What all share (details): both partners purified
For orientation: In fluorescence polarisation assays a small probe gives low polarisation when free and higher when bound to something large.

One assay has as its target T1, Nrd1 CID L20D (S. cerevisiae, UniProt P53617 1-153, L20D).
T1 construct: the construct for anisotropy is made as described previously (Kubicek et al, 2012); also called CID(L20D)-His6; source: recombinant, produced and purified as described previously (Kubicek et al, 2012); plasmid with T7 promoter
T1 sequence (looked up): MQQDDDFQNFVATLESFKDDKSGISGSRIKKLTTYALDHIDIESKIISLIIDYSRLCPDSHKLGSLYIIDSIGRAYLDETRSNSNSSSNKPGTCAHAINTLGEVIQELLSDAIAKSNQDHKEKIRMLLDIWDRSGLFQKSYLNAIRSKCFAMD

Another assay has as its target T2, Nrd1 CID R133G (S. cerevisiae, UniProt P53617 1-153, R133G).
T2 construct: the construct for anisotropy is made as described previously (Kubicek et al, 2012); also called CID(R133G)-His6; source: recombinant, produced and purified as described previously (Kubicek et al, 2012); plasmid made with QuikChange, T7 promoter
T2 sequence (looked up): T1 sequence (looked up) with D20L, R133G

The next assay deals with T3, Nrd1 CID R28D (S. cerevisiae, UniProt P53617 1-153, R28D).
T3 construct: the construct for anisotropy is made as described previously (Kubicek et al, 2012); also called CID(R28D)-His6; source: recombinant, produced and purified as described previously (Kubicek et al, 2012); plasmid with T7 promoter
T3 sequence (looked up): T1 sequence (looked up) with D20L, R28D

In a further assay the target is T4, Nrd1 CID I130A (S. cerevisiae, UniProt P53617 1-153, I130A).
T4 construct: the construct for anisotropy is made as described previously (Kubicek et al, 2012); also called CID(I130A)-His6; source: recombinant, produced and purified as described previously (Kubicek et al, 2012); plasmid with T7 promoter
T4 sequence (looked up): T1 sequence (looked up) with D20L, I130A

The target of the next assay is T5, Nrd1 CID I130K (S. cerevisiae, UniProt P53617 1-153, I130K).
T5 construct: the construct for anisotropy is made as described previously (Kubicek et al, 2012); also called CID(I130K)-His6; source: recombinant, produced and purified as described previously (Kubicek et al, 2012); plasmid with T7 promoter
T5 sequence (looked up): T1 sequence (looked up) with D20L, I130K

The target of another assay is T6, Nrd1 CID I130N (S. cerevisiae, UniProt P53617 1-153, I130N).
T6 construct: the construct for anisotropy is made as described previously (Kubicek et al, 2012); also called CID(I130N)-His6; source: recombinant, produced and purified as described previously (Kubicek et al, 2012); plasmid with T7 promoter
T6 sequence (looked up): T1 sequence (looked up) with D20L, I130N

A further assay has as its target T7, Nrd1 CID M126A (S. cerevisiae, UniProt P53617 1-153, M126A).
T7 construct: source: recombinant, produced and purified as described previously (Kubicek et al, 2012)
T7 sequence (looked up): T1 sequence (looked up) with D20L, M126A

Where a chain is given by its changes, count along the chain named. Ends that are not written are not given here. FAM = 5,6-carboxyfluorescein

B1: Sen1 NIM peptide (Sen1 aa 2,052-2,063) (peptide, UniProt Q00416 2052-2063, looked up)
peptide: {FAM}-DDDEDDYTPSIS
notes: Sen1, S. cerevisiae, fragment harbouring aa 2,052-2,063; source: synthetic peptide
As to B1, the Kd with Nrd1 CID L20D turned out to be 16.9 ± 1.5 µM; with Nrd1 CID R133G, 1.6 ± 0.04 µM; in the assay with Nrd1 CID R28D, 78.2 ± 11.5 µM; in the assay with Nrd1 CID I130A it was 7.6 ± 0.3 µM; in the assay with Nrd1 CID I130K it was 36.7 ± 4.6 µM; with Nrd1 CID I130N, 8.9 ± 0.5 µM. This molecule registered a Kd with Nrd1 CID M126A of 1.4 ± 0.07 µM.
